Measured values: patent publication US20240124560A1

Experiments:
Assay in all cases: cell-based or functional assay
[1] = target: HIV-1 Env of NIH-027_CAP45.G3 (HIV-1)
[2] = target: HIV-1 Env of pseudovirus NIH-090_A07412M1.vrc12 (clade D) (HIV-1)
[3] = target: HIV-1 Env of NAC_SS1196.1 (HIV-1)
[4] = target: HIV-1 Env of pseudovirus NIH-055_CNE58 (HIV-1)
[5] = target: HIV-1 Env of pseudovirus NIH-117_T278.5 (HIV-1)
[6] = target: HIV-1 Env of pseudovirus NAC_RHPA4.7 (HIV-1)
[7] = target: HIV-1 Env of NAC_IAVIC22 (HIV-1)
[8] = target: HIV-1 Env of NIH-056_Q168ENVa2 (HIV-1)
[9] = target: HIV-1 Env of NIH-009_1006.11.C3.1601 (HIV-1)
[10] = target: HIV-1 Env of NIH-015_62357.14.D3.4589 (HIV-1)
[11] = target: HIV-1 Env of pseudovirus NIH-043_ZM249M.B10 (HIV-1)
[12] = target: HIV-1 Env of isolate NIH-090_A07412M1.vrc12 (HIV-1)
[13] = target: HIV-1 Env of pseudovirus NIH-083_P0402 c2 11 (clade G) (HIV-1)
[14] = target: HIV-1 Env of pseudovirus NIH-016_SC05.8C11.2344 (HIV-1)
[15] = target: HIV-1 Env of NIH-106_T250.4 (HIV-1)
[16] = target: HIV-1 Env of isolate NIH-089_3016.v5.c45 (HIV-1)
[17] = target: HIV-1 Env of pseudovirus NIH-021_ZM214M.PL15 (HIV-1)
[18] = target: HIV-1 Env of pseudovirus NIH-015_62357.14.D3.4589 (HIV-1)
[19] = target: HIV-1 Env of NAC_JRCSF (HIV-1) (UniProt P20871)
[20] = target: HIV-1 Env of NAC_WITO.33 (HIV-1)
[21] = target: HIV-1 Env of pseudovirus NIH-001_6535.3 (HIV-1)
[22] = target: HIV-1 Env of pseudovirus NIH-024_ZM53M.PB12 (HIV-1)
[23] = target: HIV-1 Env of NIH-072_R3265.c06 (HIV-1)
[24] = target: HIV-1 Env of pseudovirus NAC_IAVIC22 (HIV-1)
[25] = target: HIV-1 Env of NIH-050_CNE21 (HIV-1)
[26] = target: HIV-1 Env of NIH-045_7030102001E5(Rev.) (HIV-1)
[27] = target: HIV-1 Env of pseudovirus NIH-077_BJOX009000.02.4 (HIV-1)
[28] = target: HIV-1 Env of pseudovirus NIH-091_231965.c01 (clade D) (HIV-1)
[29] = target: HIV-1 Env of NAC_SF162 (HIV-1)
[30] = target: HIV-1 Env of NIH-034_Ce0393 C3 (HIV-1)
[31] = target: HIV-1 Env of NIH-103_0815.v3.c3 (HIV-1)
[32] = target: HIV-1 Env of pseudovirus NIH-032_HIV-16845.2.22 (HIV-1)
[33] = target: envelope protein of control pseudovirus NAC_AMLV
[34] = target: HIV-1 Env of pseudovirus NAC_SS1196.1 (HIV-1)
[35] = target: HIV-1 Env of pseudovirus NIH-107_T251.18 (HIV-1)
[36] = target: HIV-1 Env of NIH-107_T251.18 (HIV-1)
[37] = target: HIV-1 Env of pseudovirus NIH-080_BJOX025000.01.1 (HIV-1)
[38] = target: HIV-1 Env of NIH-003_SC422661.8 (HIV-1)
[39] = target: HIV-1 Env of NIH-006_AC10.0.29 (HIV-1)
[40] = target: HIV-1 Env of pseudovirus NIH-029_HIV-001428.2.42 (HIV-1)
[41] = target: HIV-1 Env of pseudovirus NIH-065_191955 A11 (HIV-1)
[42] = target: HIV-1 Env of NAC_92RW020 (HIV-1)
[43] = target: HIV-1 Env of NIH-022_ZM233M.PB6 (HIV-1)
[44] = target: HIV-1 Env of NIH-097_6811.v7.c18 (HIV-1)
[45] = target: HIV-1 Env of pseudovirus NIH-050_CNE21 (HIV-1)
[46] = target: HIV-1 Env of pseudovirus NAC_REJO.67 (HIV-1)

Sequence of HIV-1 Env of NAC_JRCSF (HIV-1) (P20871 32-848 limits assumed): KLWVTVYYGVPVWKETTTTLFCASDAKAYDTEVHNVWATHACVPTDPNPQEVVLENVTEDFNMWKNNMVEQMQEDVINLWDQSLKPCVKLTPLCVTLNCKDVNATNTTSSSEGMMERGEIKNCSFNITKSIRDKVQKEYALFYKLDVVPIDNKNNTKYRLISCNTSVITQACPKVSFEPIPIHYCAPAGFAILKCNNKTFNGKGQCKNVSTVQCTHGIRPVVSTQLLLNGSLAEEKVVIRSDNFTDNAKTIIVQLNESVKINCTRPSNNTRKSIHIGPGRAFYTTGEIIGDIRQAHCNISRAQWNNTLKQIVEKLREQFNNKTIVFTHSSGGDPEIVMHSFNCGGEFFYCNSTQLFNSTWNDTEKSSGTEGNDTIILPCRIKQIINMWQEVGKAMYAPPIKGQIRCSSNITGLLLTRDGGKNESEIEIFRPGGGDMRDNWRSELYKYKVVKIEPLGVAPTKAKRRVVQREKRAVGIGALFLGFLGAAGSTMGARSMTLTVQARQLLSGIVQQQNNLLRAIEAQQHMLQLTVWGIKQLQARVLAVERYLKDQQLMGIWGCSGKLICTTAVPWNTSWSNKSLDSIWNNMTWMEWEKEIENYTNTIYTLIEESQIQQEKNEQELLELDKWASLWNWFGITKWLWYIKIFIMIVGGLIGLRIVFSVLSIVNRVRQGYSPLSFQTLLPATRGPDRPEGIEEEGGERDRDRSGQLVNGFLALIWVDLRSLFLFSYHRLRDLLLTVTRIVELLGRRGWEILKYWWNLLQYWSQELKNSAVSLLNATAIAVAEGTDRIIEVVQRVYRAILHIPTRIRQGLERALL

VRC01 (antibody) showed an IC80 neutralization [1] of 10.1 µg/mL, an IC50 (µg/ml), TZM-bl cell neutralization assay, pseudovirus [2] of 0.051 µg/mL and an IC80 neutralization [3] of 0.659 µg/mL. The neutralization IC50 [4] was 0.083 µg/mL, the neutralization IC50 [5] was greater than 50 µg/mL and the neutralization IC50 [6] was 0.035 µg/mL. The IC80 neutralization [7] was 1.37 µg/mL, the IC80 neutralization [8] was 0.218 µg/mL and the IC80 neutralization [9] was 0.571 µg/mL. It also gave an IC80 neutralization [10] of 6.95 µg/mL, a neutralization IC50 [11] of 0.071 µg/mL and an IC80 (µg/ml), TZM-bl pseudovirus neutralization [12] of 0.216 µg/mL. For the same substance, the IC50 (µg/ml), TZM-bl cell neutralization assay, pseudovirus [13] was 0.04 µg/mL, the neutralization IC50 [14] was 0.508 µg/mL and the IC80 neutralization [15] was greater than 50 µg/mL. The IC80 (µg/ml), TZM-bl pseudovirus neutralization [16] was 0.223 µg/mL, the neutralization IC50 [17] was 0.612 µg/mL and the neutralization IC50 [18] was 1.74 µg/mL. It also gave an IC80 neutralization [19] of 0.69 µg/mL, an IC80 neutralization [20] of 0.228 µg/mL and a neutralization IC50 [21] of 0.946 µg/mL. It also gave a neutralization IC50 [22] of 0.917 µg/mL, an IC80 neutralization [23] of 0.502 µg/mL and a neutralization IC50 [24] of 0.348 µg/mL. The IC80 neutralization [25] was 0.848 µg/mL, the IC80 neutralization [26] was 1.49 µg/mL and the neutralization IC50 [27] was 0.565 µg/mL. The IC50 (µg/ml), TZM-bl cell neutralization assay, pseudovirus [28] was 0.183 µg/mL, the IC80 neutralization [29] was 1.03 µg/mL and the IC80 neutralization [30] was 1.46 µg/mL. The IC80 neutralization [31] was 0.07 µg/mL, the neutralization IC50 [32] was 0.968 µg/mL and the IC50 (µg/ml), TZM-bl cell neutralization assay, control pseudovirus [33] was greater than 50 µg/mL. For the same substance, the IC80 (µg/ml), TZM-bl pseudovirus neutralization [33] was greater than 50 µg/mL, the neutralization IC50 [34] was 0.166 µg/mL and the neutralization IC50 [35] was 2.02 µg/mL. It also gave an IC80 neutralization [36] of 8.63 µg/mL, a neutralization IC50 [37] of 6.04 µg/mL and an IC80 neutralization [38] of 0.481 µg/mL. The IC80 neutralization [39] was 3.52 µg/mL, the neutralization IC50 [40] was 0.019 µg/mL and the neutralization IC50 [41] was 0.091 µg/mL. The IC80 neutralization [42] was 0.811 µg/mL, the IC80 neutralization [43] was 5.69 µg/mL and the IC80 neutralization [44] was 0.558 µg/mL. It also gave a neutralization IC50 [45] of 0.212 µg/mL and a neutralization IC50 [46] of 0.106 µg/mL.
